In US20110300071A1, “TARGETING NPR-C IN ANGIOGENESIS AND ATHEROSCLEROSIS WITH A C-TYPE ATRIAL NATRIURETIC FACTOR (CANF)-COMB NANOCOMPLEX” (Washington University, priority 2010, published 2011):
Positions of bridges follow the written chain, without caps; N, C: chain ends. Residues, ends and D or L forms follow the SMILES beside them. No end group written: not given here. *: point of attachment. DOTA = O=C(O)CN1CCN(CC(=O)O)CCN(CC(=O)*)CCN(CC(=O)O)CC1

Legend:
in vivo = conditions: rabbit, iv, total radioactivity
Experimental: In these experiments, the blood clearance studies were performed in normal rabbits (n=4) to evaluate the pharmacokinetics of tracer in vivo. About 20 MBq of ^64Cu-DOTA-C-ANF was injected intravenously into the left ear of rabbit, and blood sample (0.2 mL) was drawn from the contralacteral ear over the period of 1 h (1 min, 3 min, 5 min, 10 min, 20 min, 40 min and 60 min). The activity of the blood samples were counted in gamma counter and presented in percent injected dose per gram (ID %/g).

in vitro = in vitro ADME; conditions: rabbit, serum
Experimental: On the contrary, only free ^64Cu was detected in the control samples (^64Cu-acetate incubated in rabbit serum) by radio-HPLC.

atherosclerotic lesions = assay: MRI of Gadofluorine uptake in atherosclerotic-like lesions; assay type: in vivo, rabbit; conditions: 3T MRI 1 hour after administration
Experimental: The presence of atherosclerotic lesions in the rabbits was confirmed by 3T MRI 1 hour after administration of a non-receptor specific plaque-targeting contrast agent (Gadofluorine M, 0.5 μmol/kg body weight, Schering AG, Germany) (Sirol, M., et al., Circulation 109:2890-2896, 2004; Zheng, J., et al., Invest. Radiol. 43:49-55, 2008; Meding, J., et al., Mol. Imaging 2:120-129, 2007). […] For scanning, the rabbit was placed supine into a plastic bed. Three micropipette tubes filled with 0.5 mL Gadofluorine M served as fiducial markers, and were taped into position on the bed. At the beginning of the PET study, these tubes were drained of the Gadofluorine by syringe, and refilled with 0.5 mL of ^64Cu to serve as the PET fiducials. These helped to “co-localize” the plaque regions between the two image modalities.

[1] = target: natriuretic peptide clearance receptor (NPR-C), mouse (mouse) (UniProt P70180); assay: cell-based or functional assay
[2] = target: T1, natriuretic peptide clearance receptor (NPR-C), rabbit (rabbit, UniProt G1SZF5 25-536); assay: cell-based or functional assay
T1 sequence: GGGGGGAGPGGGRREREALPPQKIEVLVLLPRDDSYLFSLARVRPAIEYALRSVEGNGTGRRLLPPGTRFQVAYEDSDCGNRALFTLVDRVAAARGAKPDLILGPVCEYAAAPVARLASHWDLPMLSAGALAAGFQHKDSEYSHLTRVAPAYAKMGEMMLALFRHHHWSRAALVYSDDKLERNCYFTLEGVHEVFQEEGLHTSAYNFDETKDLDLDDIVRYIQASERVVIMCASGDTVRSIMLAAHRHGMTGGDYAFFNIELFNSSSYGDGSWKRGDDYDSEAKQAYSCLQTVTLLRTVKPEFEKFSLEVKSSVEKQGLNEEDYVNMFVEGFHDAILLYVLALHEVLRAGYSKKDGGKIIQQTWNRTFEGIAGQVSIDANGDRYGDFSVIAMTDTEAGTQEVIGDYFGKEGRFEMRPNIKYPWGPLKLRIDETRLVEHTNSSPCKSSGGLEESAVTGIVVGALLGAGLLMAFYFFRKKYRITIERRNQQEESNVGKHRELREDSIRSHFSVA

[3] = target: T1, natriuretic peptide clearance receptor …; assay: cell-based or functional assay; remark: listed apart in the source
[4] = target: T2, natriuretic peptide clearance receptor (NPR-C), mouse (mouse, UniProt P70180 41-536); assay: cell-based or functional assay
T2 sequence (looked up): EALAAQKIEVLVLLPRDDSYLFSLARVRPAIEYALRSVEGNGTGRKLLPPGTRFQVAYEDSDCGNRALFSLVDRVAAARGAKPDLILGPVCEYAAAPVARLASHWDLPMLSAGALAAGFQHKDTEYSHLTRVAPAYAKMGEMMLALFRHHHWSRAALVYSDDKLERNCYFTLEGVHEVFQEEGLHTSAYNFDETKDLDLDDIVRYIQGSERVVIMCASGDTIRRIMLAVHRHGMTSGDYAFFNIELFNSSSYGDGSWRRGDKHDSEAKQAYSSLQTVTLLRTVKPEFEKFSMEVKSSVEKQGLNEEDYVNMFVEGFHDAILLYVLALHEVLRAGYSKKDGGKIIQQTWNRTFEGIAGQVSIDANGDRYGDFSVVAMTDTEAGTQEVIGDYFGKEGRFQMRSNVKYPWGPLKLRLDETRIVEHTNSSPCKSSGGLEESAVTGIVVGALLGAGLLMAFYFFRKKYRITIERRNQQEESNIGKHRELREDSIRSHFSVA

[5] = target: natriuretic peptide clearance receptor (NPR-C), rabbit (rabbit) (UniProt G1SZF5); assay: cell-based or functional assay

In the case of `CC[C@H](C)[C@@H]1NC(=O)[C@H](CCCNC(=N)N)NC(=O)[C@H](CC(=O)O)NC(=O)[C@H]([C@@H](C)CC)NC(=O)[C@H](CCCNC(=N)N)NC(=O)CNC(=O)CNC(=O)[C@H](Cc2ccccc2)NC(=O)[C@@H](NC(=O)[C@H](CO)NC(=O)[C@H](CO)NC(=O)[C@H](CCCNC(=N)N)NC(=O)CN2CCN(CC(=O)O)CCN(CC(=O)O)CCN(CC(=O)O)CC2)CSSC[C@@H](C(N)=O)NC(=O)[C@H](C)NC(=O)CNC1=O` [^64Cu-DOTA-CANF, metal not drawn] ({DOTA}-RSSCFGGRIDRIGAC-NH2; disulfide 4-15), the tissue uptake at 0.05 h (in vivo) is reported as 0.1 %ID/g and the remaining at 1 h (in vitro) is reported as 97.7 ± 3.9%.

With `CC(C(=O)NCC(=O)NCCCC[C@H](NC(=O)CO[C@H]1O[C@H](CO)[C@@H](O)[C@H](O)[C@@H]1O)C(=O)N1CCN(S(=O)(=O)C(F)(F)C(F)(F)C(F)(F)C(F)(F)C(F)(F)C(F)(F)C(F)(F)C(F)(F)F)CC1)N1CCN(CC(=O)O)CCN(CC(=O)O)CCN(CC(=O)O)CC1` (stereo partly shown) [Gadofluorine M] the “uptake in control arteries (MRI)” value (atherosclerotic lesions) was “no Gadofluorine M uptake” and the “MRI signal in injured vessels” value (atherosclerotic lesions; all rabbits, all time points) was “increased signal”.

B1: ^64Cu-DOTA-CANF-Comb nanoprobe (peptide)
peptide: RSSCFGGRIDRIGAC-NH2
modifications: disulfide 4-15; also: acylated with 4-pentynoic anhydride, clicked to azide-PEG methacrylate of PMMA-core/PEG-shell comb copolymer nanoparticle, DOTA in particle core chelates 64Cu
Molecule B1 has an ischemic/nonischemic uptake ratio, 1 h p.i. [1] of 4.35, an ischemic/nonischemic uptake ratio, 24 h p.i. [1] of 5.35 and a tracer uptake in ischemic limb, 1 h p.i. [1] of 6.3 % ID/g. For the same molecule, the tracer uptake in ischemic limb, 24 h [1] was 8.5 % ID/g, the uptake in lesion site with receptor blocking, 1 h [1] was 3.34 and the uptake in lesion site with receptor blocking, 4 h [1] was 3.34. It also gave an uptake in lesion site with receptor blocking, 24 h [1] of 3.31, an uptake ratio with receptor blocking, 1 h p.i. [1] of 1.93 and an uptake ratio with receptor blocking, 4 h p.i. [1] of 1.87. The uptake ratio with receptor blocking, 24 h p.i. [1] was 1.82.

For RSSCFGGRIDRIGAC-NH2 (disulfide 4-15; also: DOTA conjugated, site not given here, 64Cu chelated) [^64Cu labeled DOTA-C-type atrial natriuretic factor (CANF) conjugate], the “Injury/control SUV ratios, 1 h” value [2] was 1.87 ratio, the “Injury/muscle SUV ratios, 1 h” value [2] was 3.39 ratio and the “SUV ratio injured/control arteries, blocking with unlabeled C-ANF” value [3] was 1.07 ratio. The “SUV ratio injured/control arteries, pre-blocking” value [3] was 1.42 ratio, the “target-to-background ratio injured artery/muscle, blocking” value [3] was 2.13 ratio and the “target-to-background ratio injured artery/muscle, pre-blocking” value [3] was 3.05 ratio. For the same molecule, the “ischemic/nonischemic uptake ratio, after blocking with unlabeled CANF” value [4] was 1.24 ratio and the “ischemic/nonischemic uptake ratio, before blocking” value [4] was 2.34 ratio.

With RSSCFGGRIDRIGAC-NH2 (disulfide 4-15; not fully specified; also: 64Cu label) [^64Cu-CANF-Comb (25% CANF-Comb)] the Injury SUV, 1 h [5] was 5.31 SUV, the Injury SUV, 4 h [5] was 4.76 SUV and the Injury SUV, 24 h [5] was 3.74 SUV. It also gave an Injury/control SUV ratios, 1 h [5] of 4.07, an Injury/control SUV ratios, 4 h [5] of 4.07 and an Injury/control SUV ratios, 24 h [5] of 4.24. The Injury/muscle SUV ratios, 1 h [5] was 38.2, the Injury/muscle SUV ratios, 4 h [5] was 37.7 and the Injury/muscle SUV ratios, 24 h [5] was 40.8.
